Source: the nanobody polyreactivity screen of Harvey et al. (2022)

Experiment: yeast display, Sf9 membrane polyspecificity reagent, FACS + sequencing; frameworks hold sequencing errors
How it was run: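 Nanobodies came from a synthetic yeast display library in Saccharomyces cerevisiae BJ5465, induced with galactose for 36–48 hours and stained for 1 hour at 4 °C with 10% biotinylated, detergent-solubilized Sf9 membrane reagent. Cells were enriched on streptavidin microbeads and then FACS-sorted, with low and high (top ~1%) gates set on anti-HA fluorescence for expression and streptavidin fluorescence for reagent binding. Each polyreactivity label reflects the gate a clone came from. Genes were amplified by colony PCR, sequenced by MiSeq 2 × 250 and filtered by CDR length.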

| Sequence | polyreactivity (PSR sort gate) |
| --- | --- |
| QVQLVESGGVLVQAGGSLRLSCAASGYIFGNYAMGWYRQAPGNERELVASIDSGGSTNYADSVKGRFTISRDNAKNTVYLQKNSLKPEDTAVYYWAARPTWNRGRSRKYWRYNYWAQGTQVTVSS | high polyreactivity |
| QVQLVESGGVLVQAGGSLRLSCAASGYIFYPYAMGWYRQAPGKERELVAAISGSGSGTYYADSVKGRFTISRDNAKNTVYLQMNSLKPEDTAVYYCAKYLYDNVWMDYWGQGTQVTVSS | low polyreactivity |
| QVQLVESGGVLVQAGGSLRLSCAAYGFIFDYYAMGWYRQAPGKERELVAAITSRGGSTYYADSVKGRFTISRDNAKNTVYLQMNSLKPEDSAVYYCAARRRSAEYNYWGQGTQVTVSS | high polyreactivity |
| QVQLVESGGVLVQAGGSLRLSCAAYGSTLRRYAMGWYRQAPGKERELVAAISYSGGSTYYADSVKGRFTISRDNAKNTVYLQMNSLKPEDTAVYYCAVVTRKGLYDYWGQGTQVTVSS | high polyreactivity |
| QVQLVESGGVLVQAGGSLRLSCAPSGFTFYRYAMGWYRQAPGKESELVAAISYSGGRTYYADSVKGRFTISCDIAKNTVYLQMNSLKPEDTAVYYCNARASYGHQGRLGYARLYYWGQGTQVTVSS | high polyreactivity |
| QVQLVESGGVLVQAGGSLRLSCAPSGYIYSKYAMGWYRQAPGKERELVASITGRGSRTYYADSVKGRFTISRDNAKNTVYLQMNSLKPEDIAVYFCAADWYGQKTSNRWYFRPGYDYWGQGTQVTVSS | high polyreactivity |
| QVQLVESGGVLVQEGGSLRLSCAASGRIFQIYAMGWYRQAPGKERELFAAISGSTSYADSVKGRFTISRDNAKNTVYLQMNSLKPEDTAVYYCAKRVVRGKVDYWGQGTQVTVSS | low polyreactivity |
| QVQLVESGGVLVQEGGSLRLSCADSGRIFYSNAMGWYRQAPGKERELVAAISYSGGRTYYADSVKGRFTISRDNAKNTVYLQMNSLIPEDTAVYYCAARYAWGYVDPGDYWGQGTQVTVSS | high polyreactivity |
| QVQLVESGGVLVQSGGSLRLSCAASGSTFAYYAMGWYRQAPGKERELVAPISWSGGSTYYADSVKVRFTISRDNAKNTVYLQMNSLNPEDTAVYYCNKRNVLDYDYWGQGTQVTVSS | low polyreactivity |
| QVQLVESGGVLVQSGVSLRLTCAASGITFNYNAMGWDSQAPGKERELVAAIRGSDSTTYYADSVKERFTISRDNAKNTVYLQMNSLKPEDTAVYYCAADYVQGFGFYYQWHYDYWGQGTQVTVSS | low polyreactivity |
| QVQLVESGGWLVQAGGSLRLSCAASGSSFYGYGMGSYRQAPGKERELVAANTGSGDTTYYADSVKGRFTNSRDNEKNTVYLQMNSLKPEDTAVYYCNARWHAEYDYWGQGTQVTVSS | low polyreactivity |
| QVQLVESGLGLVQAGGSLRLSCAASGRIFYLNDMGWYRQAPGIERELVADMTRSGGTTYYADSVKGRFTISRDNEKNTVYLQMNSLKPEETSVYYCAAESRFRYVYGVGYRPYLYGYWGQGTQVTVSS | low polyreactivity |
| QVQLVESGRGIVQAGGSLRLSCAASGSIFGWYAMGWYRQAPGKERELVASNSVTAGSTYYADSVKWRFTISRDNAKNTVYLLMYSLKPVYTAVYYCASDDDTADAVQLFYYWGQGTHVTVSS | low polyreactivity |
| QVQLVESGRGLDQAGGSLRLSCAASGSIIGANAMGWYRQAPGKERELVAAITDNTSTTFYADSVKGRFTISRDNAKNTVYLQMNSLKPEDTAVYYCNADRAVVLSTTVWGEYDYWGQGTQVTVSS | low polyreactivity |
| QVQLVESGRGLFQAGGSLRLSCAASGSTFTVNTMGWYRQAPGKERELVDAITKNGANTYYADSVKGRFTISRDNAKNTVYLQMNILKPEDTAVYYCAALYVYGKSYSRWLVELDYWGQGTQVTVSS | low polyreactivity |
| QVQLVESGRGLLQAGGSLPLSCAASGRIFAYNTMGWYRQAPGKERELVAAISWRGGSTYYADSVKGRFTISRDNAKKTVYFQMNSLKPEDTAVYYCSVLYSSFTRFDYWGQGSQVTVSS | high polyreactivity |
| QVQLVESGRGLLQAGGSLRLSCAASGSIFYPYVMGWYRQAPGKERELVASISWRGGRTYYADSVKGRFTISRDNAKNTVYLQMNSMKPEDTAVYYCAKRTYDSFYGYYYWGQGTQVTVSS | high polyreactivity |
| QVQLVESGRGLVLAGGSLRLSCAASGRIFRVNAMGWYRQAPGKERELVAAISRGGNTYYADSVKGRFTISRDNEKNTVSLQMNSLKPEDTAVYYCAASRSWPRMDYWGQGTQVSVSS | high polyreactivity |
| QVQLVESGRGLVQAGGSLPLSCAASGFIFRRYAMVWYRQAPGKERELVAGISRGGDSTYYADSVKGRFTISRDNAKNTVYLQMNSLKPEDTAVYFCAGQGRDSTPHGYWGQGTQVTVSS | high polyreactivity |
| QVQLVESGRGLVQAGGSLPLSSASSGLTFKTYAMGRYRQAPGKVSELVAAITSGGTSTYYADSVKGRFTISRDNAKNTVYFQMNSLKPEDTAVYYCAARYYFSYSVGYYYWGQGTQVTVSS | high polyreactivity |
| QVQLVESGRGLVQAGGSLRISCAASGFIFSKYAMGWYRQAPGKERELVAAISYSGGSTYYADSVKGRFTISRDNAKNTVYLQMNSLKPEDTAVYYCAAEGYGGYEHWGQGTQVTVSS | low polyreactivity |

| Sequence | polyreactivity (PSR sort gate) |
| --- | --- |
| QVQLVESGRGLVQAGGSLRISSAASGFIYRYYAMGWYRQAPGKERELVAAINTGGTTYYADSVKGRFTISRDNAKNTVYFQMNSLKPEDTAVYYCAKRWPRSSLGDYWGQGTQVTVSS | high polyreactivity |
| QVQLVESGRGLVQAGGSLRLSCAASGFIFRDYAMGLYRQAPGKVRELVAAISSRGGGTSYADSVKGRFTITRDNAKNTVYLQMNSLKPEDTAVYYCNKGYGRYVVTAYDYWGQGTQVTVSS | high polyreactivity |
| QVQLVESGRGLVQAGGSLRLSCAASGFIFRYYAMGWYRQAPGKERELVAAINASGGRTYYADSVKGRFTISRDNARNSVYLQMNSLKPEDTAVYYCAAYRSYQTFDYWGQGTQVNVSS | high polyreactivity |
| QVQLVESGRGLVQAGGSLRLSCAASGFIFYSNAMGWYRQAPGKERELVAAISRGGGSTYFADSLKGRFTISRDNAKNTVYLQMNSLKPEDTAVYYCAKRRLSPQDDYWGQGTQVTVSS | high polyreactivity |
| QVQLVESGRGLVQAGGSLRLSCAASGFTFAGYAMGWYRQATGKERELVAAITWSGGRTYYADSVKGRFTISRDNAKNTVYLQMKSLKPEDTAVYYCAAASGRSRYEYWGQGTQVTVSS | high polyreactivity |
| QVQLVESGRGLVQAGGSLRLSCAASGIIFTYNAMGWYRQAPGKERELVAAISAGGGSTYYADSVKGRFTISRDNAKNTVYLQMNSLKPEDTAVYYCAAARRYATQFHYDSWGQGTQVTVSS | high polyreactivity |
| QVQLVESGRGLVQAGGSLRLSCAASGITFLDYAMGWYRQAPGKERELVAAITKSGGSTYYADSVKGRFTISRDNAKNTVFLQMNSLKPEDTAVYYCAKGRHPLWVEQPYEFDYWGQGTQVTVSS | low polyreactivity |
| QVQLVESGRGLVQAGGSLRLSCAASGITFVRYAMGWYRQAPGKEREFVAAITTSGGSTYYADSVKGRFTISRDNAKYSVYLQLNSLKPEDTAVYYCAARANAASRTFNYWGQGTQVTVSS | high polyreactivity |
| QVQLVESGRGLVQAGGSLRLSCAASGNTFGENAMGWYRKAPGKERELVAAISNGGTTNYADSVKGRFTISRDNAKNSVYLQMNSLKPEDTAVYYCNAKFGISQPGHSGLLKMDYWGQGTQVTVSS | low polyreactivity |
| QVQLVESGRGLVQAGGSLRLSCAASGRIFDKYAMGWYRQAPGKERELVAAISSSGGSTYYADSVKGRFTISRDNAKNTVYLQMNSLKTEVTAVYYCARQRYYGYYYWGQGTQVTVSS | high polyreactivity |
| QVQLVESGRGLVQAGGSLRLSCAASGRIFRWYDMGWYRKAPGKERELVAAISSRGGSTYYADSVKGRFTISRDNAKNTVYLQMNSLKPEDTAVYYCAADTSGWQPRYDYWGQGTQVTVSS | high polyreactivity |
| QVQLVESGRGLVQAGGSLRLSCAASGRIFSVNTMGWYRQAPGKERELVAGITGGGSTNYADSVKGRFTISRDNAKNTVYLQMNSLKPEDTAVYYCAAGWRSGFDYWGQGTQVTVSS | high polyreactivity |
| QVQLVESGRGLVQAGGSLRLSCAASGRTFRWYAMGWYRKAPGKERELVAAISGSGDRTYYADSVKGRFTISRDNAKNTVYLQMYSLKPVDTAVYYCYKAYLLYYTYARGDYWGQGTQVTVSS | high polyreactivity |
| QVQLVESGRGLVQAGGSLRLSCAASGRTFYLYAMVWNIQAPGKERELVAAITFNGGSTYYADSVKGRFTISRDNAKNTVYLQMNSLKPEDTAVYYCAARLSKRSGYYYWGQVTQVTVSS | high polyreactivity |
| QVQLVESGRGLVQAGGSLRLSCAASGSIFTTNAMGWYRQAPGKERELVAAISKSGASTYYADSVKGRVTISRDNAKNTVYLQMNSLKPEDTAVYYCAAGLRYTGRFRFYYWGQGTQVTVSS | high polyreactivity |
| QVQLVESGRGLVQAGGSLRLSCAASGSTFATYAMGWYRQAPGKERELVAVITRGGRTYYADSVKGRFTISRDNAKNTVYLQMNSLKPEDNAVYYCAAKAYTYYARIGFDYWGQGTQVTVSS | high polyreactivity |
| QVQLVESGRGLVQAGGSLRLSCAASGSTFFDYAMGWYRQAPGKERELVATISWNGGSTYYADSVKGRFTISRDTATNTVYLQMNSLKPEDTAVYYCAKDRGYRYLGDYWGQGTQVSVSS | low polyreactivity |
| QVQLVESGRGLVQAGGSLRLSCAASGSTFGPYAMGWYRQAPGKEREFVAGISKSTSSTYYADSVKGRFTISRDNAKNTVYLQMNSLKPEDTAVYYCAAQGGRNRGYRYYWGQGTQVTVSS | high polyreactivity |
| QVQLVESGRGLVQAGGSLRLSCAASGSTFPKNAMGWYRQAPGKERELVASISSDGSTYYADSVKGRFTISRDNAKNTVYLQMNSLKPEDTAVYYCAAVLWEPPVHPGYDYWGQVTQVTVSS | low polyreactivity |
| QVQLVESGRGLVQAGGSLRLSCAASGSTFQSNAMGWYRQATGKERELVAAIDQSGGSTYYADSVKGRFTISRHNAKNTVYLQMNSLKPEDSAVYYCAAEYYYPQQPRKWYGYWGQGTQVTVSS | high polyreactivity |
